This experiment concerns the target Ncore-MoRE (MeV N with MoRE relocated from Ntail to Ncore position 138) (measles virus (MeV-Edm strain)). Briefly: co-IP.

The values below come from article PMC5291697.

B1: standard measles virus (MeV) phosphoprotein P, full length (natural protein)
chain: MATLLRSLALFKRNKDKPPITSGSGGAIRGIKHIIIVPIPGDSSITTRSRLLDRLVRLIGNPDVSGPKLTGALIGILSLFVESPGQLIQRITDDPDVSIRLLEVVQSDQSQSGLTFASRGTNMEDEADQYFSHDDPISSDQSRFGWFENKEISDIEVQDPEGFNMILGTILAQIWVLLAKAVTAPDTAADSELRRWIKYTQQRRVVGEFRLERKWLDVVRNRIAEDLSLRRFMVALILDIKRTPGNKPRIAEMICDIDTYIVEAGLASFILTIKFGIETMYPALGLHEFAGELSTLESLMNLYQQMGETAPYMVILENSIQNKFSAGSYPLLWSYAMGVGVELENSMGGLNFGRSYFDPAYFRLGQEMVRRSAGKVSSTLASELGITAEDARLVSEIAMHTTEDKISRAVGPRQAQVSFLHGDQSENELPRLGGKEDRRVKQSRGEARESYRETGPSRASDARAAHLPTGTPLDIDTASESSQDPQDSRRSADALLRLQAMAGISEEQGSDTDTPIVYNDRNLLD
B1 showed a coprecipitation efficiency relative to standard N (% of standard N) of 75.
